Patent publication US20190060239A1, “Technology for the Preparation of Microparticles” (Ansun Biopharma, Inc., priority 2007, published 2019)

Assay: Microsphere formation, size and appearance by light microscopy
Assay type: physicochemical
Method: 4) DAS181+5 mM sodium citrate, pH 5.0+10% isopropanol; • Plastic microcentrifuge tubes containing the cocktails with ingredients as described in 1)-4) above were gradually cooled from: • (a) ambient temperature (about 25° C.) to 4° C. by placing the cocktails in a refrigerator, followed by: • (b) cooling to −20° C. by placing the resulting cocktail from (a) in a freezer, followed by: • (c) freezing to −80° C. by placing the resulting cocktail from b) in a freezer.
Freezing to −80° C. is carried out to remove ingredients from the cocktail other than the microspheres (e.g., solvent, etc.) by freeze-drying. Cocktail 4) was prepared in triplicate, two aliquots in plastic tubes and one in a glass tube. One aliquot (in a plastic tube) was cooled as described above, while the two other aliquots (one in a plastic tube and one in a glass tube) were subjected to snap cooling/freezing by dipping the tubes into liquid nitrogen.
Upon freezing, all tubes were placed into the lyophilizer and the volatiles (water and isopropanol) were removed by sublimation, leaving the dry pellets.
The dry pellets recovered from the cocktails treated as described above, were tested for the presence of microspheres.
(§1) DAS181 was purified and used to prepare microspheres as described above in Example 1 (see cocktail 4)), using a combination of DAS181 protein (10 mg/ml), citrate counterion (sodium citrate, 5 mM) and isopropanol organic solvent (10%, 20% or 30%). The resulting cocktail solutions were cooled from ambient temperature (about 25° C.) to 4° C., followed by cooling to −20° C., followed by freezing to −80° C., as described in Example 1. Upon freezing to −80° C., the tubes are placed in a lyophilizer and the volatiles (water and isopropanol) were removed by sublimation, leaving the dry powder containing microspheres.
as §1, with “protein (5 mg/ml or 10” for “protein (10”, “isopropanol (5%” for “isopropanol organic solvent (10%, 20%”, “or 20%).” for “or 30%).”, “tubes were” for “tubes are”
DAS181 was purified and used to prepare microspheres as described above in Example 1 (see cocktail 4)), using a combination of DAS181 protein (10 mg/ml), citrate counterion (sodium citrate; 2 mM, 3 mM or 6 mM) and isopropanol (20%). The cocktail solutions were mixed in glass vials and cooled from +20° C. to −40° C. at a freeze ramp of 1° C. per minute in a Millrock Lab Series lyophilizer. Volatiles (water and isopropanol) were removed by sublimation at 100 mTorr with primary drying at −30° C. for 12 hours and secondary drying at 30° C. for 3 hours, leaving the dry powder containing microspheres.
To a cocktail solution containing 5 mg/ml DAS181, 5 mM sodium citrate, and 20% isopropanol, was added a surfactant (3.5% w/w lecithin, 0.7% w/w Span-85® (sorbitan trioleate), or 3.5% w/w oleic acid).

B1: DAS181: fusion protein: heparin (GAG) binding domain of human amphiregulin fused to a catalytic domain of Actinomyces Viscosus sialidase (SEQ ID NO:17) (protein)
chain: MGDHPQATPAPAPDASTELPASMSQAQHLAANTATDNYRIPAITTAPNGDLLISYDERPKDNGNGGSDAPNPNHIVQRRSTDGGKTWSAPTYIHQGTETGKKVGYSDPSYVVDHQTGTIFNFHVKSYDQGWGGSRGGTDPENRGIIQAEVSTSTDNGWTWTHRTITADITKDKPWTARFAASGQGIQIQHGPHAGRLVQQYTIRTAGGAVQAVSVYSDDHGKTWQAGTPIGTGMDENKVVELSDGSLMLNSRASDGSGFRKVAHSTDGGQTWSEPVSDKNLPDSVDNAQIIRAFPNAAPDDPRAKVLLLSHSPNPRPWSRDRGTISMSCDDGASWTTSKVFHEPFVGYTTIAVQSDGSIGLLSEDAHNGADYGGIWYRNFTMNWLGEQCGQKPAKRKKKGGKNGKNRRNRKKKNP
modifications: DAS181
size of microspheres (5 mg/ml DAS181, 5 mM sodium citrate, 20% isopropanol): about 3 microns
dispersivity of microspheres formed with surfactant vs without (5 mg/ml DAS181, 5 mM sodium citrate, 20% isopropanol + 3.5% w/w lecithin, 0.7% w/w Span-85 or 3.5% w/w oleic acid): improved dispersivity
size of microspheres (10 mg/ml DAS181, 2 mM citrate, 20% isopropanol, +20°C to −40°C at 1°C per minute): 1 micron
size of microspheres (10 mg/ml DAS181, 3 mM citrate, 20% isopropanol, +20°C to −40°C at 1°C per minute): 3 microns
size of microspheres (10 mg/ml DAS181, 5 mM sodium citrate, 30% isopropanol, gradual cooling): 5-6 microns
size of microspheres (10 mg/ml DAS181, 6 mM citrate, 20% isopropanol, +20°C to −40°C at 1°C per minute): 5 microns
